# Patent US20130109581A1, “POSITIVELY CHARGED SPECIES AS BINDING REAGENTS IN THE SEPARATION OF PROTEIN AGGREGATES FROM MONOMERS” (priority 2009, published 2013)
# “And” between values parts separate entries of the source, which are not always exact repeats. Identical values can stand only once.
# Columns and labels:
# Abeta 1-42 globulomer [1] = biological target: T1, Abeta 1-42 globulomer (Homo sapiens, UniProt P05067); test: Globulomer capture assay in CSF (Example 6); type: binding; conditions: 4 ng/mL globulomer spiked; FIG. 29
# T1 construct: beta amyloid (1-42) was monomerized with incubation in hexafluoroisopropanol
# [2] = biological target: T2, oligomeric beta amyloid 1-42 (globulomer) (Homo sapiens, UniProt P05067); test: Misfolded Protein Assay: capture of globulomer spiked into CSF (Example 2); type: binding; conditions: globulomer-spiked CSF vs normal CSF; reagent on Dynal M270 beads
# T2 construct: beta amyloid (1-42) was monomerized with incubation in hexafluoroisopropanol
# Experimental: To assess the ability of these reagents to capture protein aggregates, the previously described Misfolded Protein Assay or MPA (Lau et al., 2007, PNAS, 104: 11551) was used (FIG. 3). In this assay, the capture reagent of interest is attached to beads which are incubated with a sample of interest containing a mixture of normal monomeric and aggregated proteins to allow for capture and then washed to remove unbound material. After this enrichment step, an elution buffer is used to dissociate the captured material from the beads as well as to denature any aggregates. The eluted material is then applied to a sandwich ELISA that is specific for the protein of interest. Strong aggregate-binding reagents acting as effective capture reagents show a high signal from the sample containing a mixture of monomers and aggregates, but not from the control sample, which contains only physiologic levels of monomeric protein.
# Beads displaying carboxylic acids were treated with EDC and BMPH to create maleimide-displaying beads, to which thiolated peptides (or other thiolated organic molecules) were added through a Michael addition reaction. Dynal M270 magnetized beads (30 mg/mL bead) displaying carboxylic acids were vortexed and placed into a 15 ml falcon tube. The tube was placed into a magnet, and the supernatant removed. The beads were washed 2 times with 0.1 M MES buffer, pH 5, and then the washing buffer was removed. The coupling solution (33 mM BMPH, 130 mM EDC in MES buffer) was added, and the tube was rocked for 30 minutes at room temperature. After washing in 1×MES, 1× Tris, pH 7.5, the beads were quenched with Tris buffer (50 mM Tris buffer, pH 7.5) for 15 minutes. The beads were then washed 2 times in phosphate buffer and added to 5 mM thiolated ligand in degassed phosphate. The beads were rotated for 21 hours, then washed in 0.1 M phosphate buffer, pH 7, 1×PBS, and stored.
# To prepare the globulomer, beta amyloid (1-42) was monomerized with incubation in hexafluoroisopropanol. The hexafluoroisopropanol was removed by vacuum centrifugation. DMSO, PBS, and 2% SDS were then added to the sample. The sample was vortexed and sonicated and then incubated at 37° C. After 6 hours, the sample was diluted with water, vortexed, and incubated at 37° C. for an additional 19 hours. The sample was ultracentrifuged at 135000×g for 1 hour at 4° C., and the supernatant retained. The globulomers were spiked into CSF for the assay.
# Aliquots of beads conjugated to various reagents were added to wells of a 96-well plate. Globulomer-spiked CSF in a Tris buffer was added to each well, and the plates were incubated for 1 hour at 37° C. with shaking. For the negative control, normal CSF was used, which is considered to contain only monomers of beta amyloid. The beads were washed with TBST wash buffer, and bound materials were eluted with a denaturing solution (typically 0.1-0.15 N NaOH). A reconditioning buffer was added to the eluate prior to beta amyloid detection via a beta amyloid (1-42) specific sandwich ELISA.
# In order to determine the amount of ligand loading, amine quanitation was used. Aliquots of beads were placed in a magnet, and the supernatant removed. 80% phenol in ethanol, 0.2 mM KCN in pyridine/water, and 6% ninhydrin in ethanol was added to each tube. The aliquots were vortexed and heated for 7 minutes at 100° C. After cooling to room temperature, 60% ethanol was added. The tubes were placed in a magnet, and the absorbance of the supernatant at 570 nm was determined. The loading of the beads was determined according to Beer's law, using the extinction coefficient of 15000 M-1 cm-1.
# Beads (3 ul or 15 ul) were added to samples containing 0.5 ng/mL globulomer spiked into CSF. […] For PSR1, this limit was ˜5 nmol ligand/mg bead for binding preferentially to globulomer. […]
# Abeta 1-42 globulomer [3] = biological target: T1, Abeta 1-42 globulomer; test: Globulomer capture assay in CSF (Example 6); type: binding
# Experimental: (§1) A series of new potential aggregate-specific binding reagents were designed as shown below and conjugated onto magnetic Dynal M270 beads as described in Example 2. Typically 7-12 nmol of ligand (each candidate aggregate-specific binding reagent) was coated onto 1 mg of beads.
# (§2) Aliquots of the beads (typically 3 ul) were added to wells of a 96 well plate, followed by sample (with or without Abeta 1-42 globulomer (an Abeta42 oligomer model) spiked in 80:20 CSF:TBSTT, typically 125 ul). The plate was sealed and incubated for 1 hour at 37° C. with shaking. The plate was washed with aqueous solutions of detergent (typically polyethylene glycol sorbitan monolaurate and n-tetradecyl-N,N-dimethyl-3-ammonio-1-propanesulfonate) to remove ubound material and the residual buffer removed. A denaturing solution (typically 0.1-0.15 N NaOH) was added to each well and the plate heated to 80° C. for 30 min with shaking. After cooling the plate to room temperature, a neutralizing buffer (typically 0.12-0.18 M NaH2PO3 in 0.4% TWEEN20,) was added and the plate was shaken briefly at room temperature. The bead eluate was analyzed using either an Aβ42-specific ELISA or the MSD® 96-Well MULTI-SPOT® Human/Rodent [4G8] Abeta Triplex Ultra-Sensitive Assay from Meso Scale Discovery (Gaithersburg, Md.). For the Aβ42-specific assay, the samples were eluted from the beads and a detection antibody (4G8 HRP) was added to a plate bearing the Aβ42-specific antibody 12F4. The plate was incubated for 1 hour, washed, the substrate was added (SuperSignal West Femto Maximum Sensitivity Substrate from Thermo Fisher, Rockville, Md.), and the luminescence was measured. The MSD plate assay was performed in a similar fashion, according to the manufacturer's protocol.
# (§3) In this experiment the preferred number of charges within a given scaffold was identified. An Ala/Lys peptide framework was utilized, where the inclusion of each Lys residue increases the peptides' net charge by +1. Six hexapeptides with increasing charge (+1→+6), AAAKAA, AAKKAA, AAKKKA, AKKKKA, AKKKKK, and KKKKKK, were prepared and conjugated on the beads. The ability of these beads to capture Abeta 1-42 globulomer spiked at 1 ng/mL into CSF was tested, and the result is shown in FIG. 25. The globulomer capture level (“42 1 ng/ml” or the closed bars) was compared to the background signal of Abeta 1-42 detected in the unspiked CSF (“42 0 ng/ml”) and the background signal of Abeta 1-40 detected in unspiked CSF (“40 0 ng/ml”) or CSF spiked with AB42 oligomers “40 1 ng/ml”. The charge density, as conjugated to the magnetic beads, of each reagent evaluated in this experiment is shown below in Table 8.
# Abeta 1-40 monomer = biological target: T3, Abeta 1-40 monomer (Homo sapiens, UniProt P05067); test: Globulomer capture assay in CSF (Example 6): Abeta 1-40 noise; type: binding; conditions: Abeta 1-40 signal (noise), CSF samples
# T3 construct: Abeta 1-40 monomer capture level; from tissue; host or cells: cerebrospinal fluid (matrix of the assay)
# Experimental: as §1, §2, §3
# PrP^Sc = PrP^Sc (Mesocricetus auratus, UniProt P04273)
# Chain of PrP^Sc (P04273 23-231 limits assumed): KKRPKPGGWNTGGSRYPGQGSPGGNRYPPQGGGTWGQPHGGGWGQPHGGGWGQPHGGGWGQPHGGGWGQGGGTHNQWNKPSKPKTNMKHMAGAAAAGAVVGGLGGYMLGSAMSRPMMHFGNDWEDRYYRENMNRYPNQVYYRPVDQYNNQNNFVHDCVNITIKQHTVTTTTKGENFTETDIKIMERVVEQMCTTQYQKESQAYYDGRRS
# Aβ(1-42) aggregates = biological target: T4, Aβ(1-42) aggregates (Homo sapiens, UniProt P05067); type: binding
# T4 construct: For Aβ(1-42), 10 nL of 10% brain homogenate was added to each well; from tissue; host or cells: Alzheimer's disease patient brain homogenate
# tau aggregates = type: binding, human
# normal CSF Aβ42 = biological target: T5, normal CSF Aβ42 (Homo sapiens, UniProt P05067); test: NMPA with detergent washing: background from unspiked CSF, Abeta42; type: binding; conditions: CSF; PSR1 beads treated with detergent post capture
# T5 construct: reduced the detection of normal CSF Aβ42 to the background levels; from tissue; host or cells: pooled normal cerebrospinal fluid
# Experimental: Second, two neutral detergents, polyethylene glycol sorbitan monolaurate (available as TWEEN 20 from Sigma-Aldrich, St. Louis, Mo.) and n-tetradecyl-N,N-dimethyl-3-ammonio-1-propanesulfonate (available as ZWITTERGENT 3-14 from EMI) Chemicals, Gibbstown, N.J.) were used to treat the globulomer-spiked CSF samples that had been contacted with PSR1 beads. For each assay, a mixture of 30 μl of PSR1 beads (coated at about 7-12 nmol PSR1 ligand/mg DYNAL beads, which were used in this example and in the following examples unless otherwise stated) and 70 μl of 1×TBSTT was immediately pipetted into each well on the pulldown plate. The liquid was removed on a magnetic separator. Fifty micro liters of 5×TBSTT was added to each well. The beads were suspended by briefly shaking at 750 rpm. Next […] of TBSTT or CSF sample without globulomer was added to each well. The pulldown plate was sealed and incubated at 37° C. for 1 hour with shaking at 500 rpm. After incubation, the beads were washed 8 times with TBST on the plate washer. After the plate wash, residual TBST buffer was removed from the beads on the magnetic separator. The beads were then incubated with 100 μl of either TBS, 1% Tween20 or 1% Zwittergent 3-14 for 30 minutes at room temperature at 750 rpm, (followed by an additional 8 washes with TBST on the plate washer. After removing residual TBST on the magnetic separator, 20 μl of denaturing solution, typically 0.1-0.15 N NaOH, was added to the beads. The plate was covered with an aluminum foil plate sealer and incubated at 80° C. for 30 minutes with shaking at 750 rpm. After incubation, the plate was cooled to room temperature and twenty micro liters of neutralizing solution, typically 0.12-0.18 M NaH2PO4+0.4% Tween20) was added into each well and the plate was incubated at room temperature for 5 minutes with shaking at 750 rpm. […] MSD Abeta Triplex Assay was preformed according to the manufacturer's instructions.
# A summary of the assay results and calculated signal/noise is shown below in Table 17.
# Abeta 42 globulomer = Abeta 42 globulomer (Homo sapiens, UniProt P05067); test: NMPA with detergent washing after PSR1 pulldown: globulomer detection; type: binding
# [4] = biological target: T6, Aβ40 aggregates in AD CSF (Homo sapiens, UniProt P05067); test: Discrimination between AD and normal CSF; type: binding; conditions: AD CSF; detergent wash; data not shown
# T6 construct: from tissue; host or cells: pooled cerebrospinal fluid (normal or AD)
# Experimental: The Ab42 aggregates were prepared as previously described: fibrils were prepared per Stine et al (JBC 2003, 278, p11612), globulomers were prepared per Barghorn et al (J Neurology 2005 95 p834), ADDLs were prepared per Lambert et al (PNAS 1998, 95 p6448), and ASPDs were prepared per Noguchi et al (JBC 2009 284 p32895). Normal CSF was pooled from clinically characterized non-demented patient CSF samples. AD CSF was pooled from clinically-characterized AD patient samples. Alzheimer's Disease Brain Homogenate (ADBH) was prepared by sonication of clinically diagnosed AD patient brain samples in 0.2M.sucrose (1:10 w/v).
# For the capture assay (Misfolded Protein Assay), aliquots of the beads (30 ul) were added to wells of a 96 well plate, followed by 125 ul of sample in 80:20 CSF:TBSTT. The plate was sealed and incubated for 1 h at 37 C with shaking. The plate was washed with TBST and the residual buffer removed. A denaturing solution (0.1 N NaOH) was added to each well and the plate heated to 80 C. for 30 min with shaking. After cooling the plate to RT, a neutralizing buffer (0.12 M NaH2PO3-0.4% TW20,) was added and the plate shaken briefly at RT. The assay was analyzed using the triplex Mesoscale Discovery ELISA kit for Aβ. The Aβ in the samples eluted from the beads were detected per the manufacturer's protocol.
# For discriminating between AD and normal CSF, pooled normal CSF or pooled Alzheimer's Disease patient CSF, were assayed per the protocol described above.
substance,measurement,setting,value
AKFKKK,globulomer capture,Abeta 1-42 globulomer [1],improved globulomer capture relative to nonaromatic residues
DDDDDD,capture of oligomers (relative light units from the Abeta ELISA),[2],little enrichment of the oligomeric species
FKFKKK,globulomer capture,"Abeta 1-42 globulomer [3]; Abeta42 globulomer spiked into CSF, reagents on beads",captured globulomers specifically
same,globulomer capture,Abeta 1-42 globulomer [1],improved globulomer capture relative to nonaromatic residues
HHHHHH,capture of oligomers (relative light units from the Abeta ELISA),[2],little enrichment of the oligomeric species
KKKKKK,"40, 1 ng/ml average reading",Abeta 1-40 monomer,197 RLUs
same,capture of oligomers (relative light units from the Abeta ELISA),[2],significant capture
same,42:40 (signal:noise ratio),"Abeta 1-42 globulomer [3]; 1 ng/ml average reading, ratio of 42 to 40",3.3
same,"42, 1 ng/ml average reading",Abeta 1-42 globulomer [3]; Abeta 1-42 globulomer spiked at 1 ng/mL into CSF,658 RLUs
KKKWKW,capture of oligomers (relative light units from the Abeta ELISA),[2],increased capture efficiency relative to the corresponding peptides with aliphatic hydrophobic residues or no hydrophobic residues
Nab-Nab-Nab-Nab-Nab-Nab [++++++],PrP^Sc capture signal,PrP^Sc,Signal was observed with the 100 or 300 ng/mL spike levels
Nab-Nab-Nab-Nab-Nab-Nab-Nab [+++++++],limit of detection for Aβ(1-42) capture,Aβ(1-42) aggregates,1.6 mL/assay and 2.5 mL/assay
same,"total Tau signal, AD vs normal brain homogenate",tau aggregates,higher signals in the AD samples relative to the normal brain homogenates
"n-Hexadecyl-N,N-dimethyl-3-ammonio-1-propanesulfonate [ZW3-16]","Abeta 42 RLU, 0 ng/mL Abeta 42 globulomer, Average",normal CSF Aβ42,67.0 RLU
same,signal/noise of globulomer detection,Abeta 42 globulomer,improved the signal/noise ratio for Abeta 42 globulomer detection more significantly
same,S/N Abeta 42 globulomer-spiked/unspiked,Abeta 42 globulomer; 0.5 ng/mL vs 0 ng/mL globulomer,10.9
same,S/N Abeta 42 globulomer-spiked/Abeta 40,Abeta 42 globulomer; Abeta 42 RLU at 0.5 ng/mL over average Abeta 40 RLU,3.7
same,"Abeta 42 RLU, 0.5 ng/mL Abeta 42 globulomer, Average","Abeta 42 globulomer; CSF, PSR1 beads treated with detergent post capture",730.7 RLU
same,Abeta 40 aggregates capture S/N,[4],improved Abeta 40 aggregates capture S/N even more significantly in AD CSF
